Laboratory results reported in patent US7087393.

Target: rabbit anti-CS198 peptide antiserum raised against the unconjugated peptide of SEQUENCE ID NO 44 (13 week bleed)
Test: Western blot competition: antiserum pre-incubated overnight at 4 C with varying concentrations of peptide immunogen before exposure to the filter carrying the 45 kD band

concentration of peptide at which antibody binding to the band was inhibited: 2.6 µM
B1: CS198 synthetic peptide of SEQUENCE ID NO 44 (peptide)
peptide: RLQKSQSSDLLERERESVLRREQEVAEERRN
